Source: article doi:10.1101/306035

How the values were obtained:
[1] = target: DcaP lacking 40 residues at the N-terminus of the mature protein (DcaP_(DN40)) (Acinetobacter baumannii (strain AB307-0294)); experiment: SEC
[2] = target: barrel-only DcaP lacking the first 59 residues (DcaP_(Trunc)) (Acinetobacter baumannii (strain AB307-0294)); experiment: SEC
[3] = target: full-length DcaP from Acinetobacter baumannii AB307-0294 (DcaPfl) (Acinetobacter baumannii (strain AB307-0294)); experiment: SEC
[4] = target: full-length DcaP from Acinetobacter baumannii AB307-0294 (DcaPfl) (Acinetobacter baumannii (strain AB307-0294)); experiment: single channel electrophysiology in planar lipid bilayers
[5] = target: seleno-methionine substituted DcaP_(DN40) with L280M and L282M (Acinetobacter baumannii (strain AB307-0294)); experiment: crystal structure

DcaP lacking 40 residues at the N-terminus of the mature protein (DcaP_(DN40)) (domain or fragment)
stoichiometry N [1]: 3

barrel-only DcaP lacking the first 59 residues (DcaP_(Trunc)) (domain or fragment)
stoichiometry N [2]: 3

full-length DcaP from Acinetobacter baumannii AB307-0294 (DcaPfl) (natural protein)
stoichiometry N [3]: 3
stoichiometry N [4]: 3

seleno-methionine substituted DcaP_(DN40) with L280M and L282M (domain or fragment)
stoichiometry N [5]: 3
